# Test results: patent publication US20140072613A1, “Compositions and Methods for Treating Cutaneous Scarring” (priority 2012, published 2014)
# How the values were obtained:
# Assay in all cases: biochemical
# Type in all cases: biochemical
# 266 human kinases [1] = biological target: 266 human kinases (Homo sapiens, UniProt Q7KZI7); details: PAR-1Bα(h); 100 μM
# Summary of the method: (§1)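 Read-out by scintillation counting of radiolabelled, positively charged substrate bound to negatively charged filter; activity normalised to 100% control. Phosphate transferred from radiolabelled ATP.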
# 266 human kinases [2] = biological target: T1, 266 human kinases (Homo sapiens, UniProt P42681); details: Txk(h); 100 μM
# T1 sequence (P42681 1-527): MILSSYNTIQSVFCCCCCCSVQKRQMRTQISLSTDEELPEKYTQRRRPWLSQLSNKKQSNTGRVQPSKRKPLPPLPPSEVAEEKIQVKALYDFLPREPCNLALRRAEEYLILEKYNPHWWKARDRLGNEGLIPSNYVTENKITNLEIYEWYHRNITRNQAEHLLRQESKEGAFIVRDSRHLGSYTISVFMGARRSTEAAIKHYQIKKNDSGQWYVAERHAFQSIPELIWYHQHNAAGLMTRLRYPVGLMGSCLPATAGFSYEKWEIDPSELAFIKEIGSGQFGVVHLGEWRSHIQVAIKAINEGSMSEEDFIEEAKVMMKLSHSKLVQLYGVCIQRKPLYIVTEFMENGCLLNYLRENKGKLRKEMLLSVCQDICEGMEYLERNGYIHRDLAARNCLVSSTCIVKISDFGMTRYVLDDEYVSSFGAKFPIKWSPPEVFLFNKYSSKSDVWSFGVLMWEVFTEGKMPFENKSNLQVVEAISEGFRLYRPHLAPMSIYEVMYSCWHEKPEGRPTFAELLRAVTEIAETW
# Summary of the method: as §1
# 266 human kinases [3] = biological target: 266 human kinases (Homo sapiens, UniProt Q02763); details: Tie2(h); 100 μM
# Summary of the method: as §1
# 266 human kinases [4] = biological target: 266 human kinases (Homo sapiens, UniProt O60674); details: JAK2(h); 100 μM
# Summary of the method: as §1
# 266 human kinases [5] = biological target: 266 human kinases (Homo sapiens, UniProt Q15375); details: EphA7(h); 100 μM
# Summary of the method: as §1
# 266 human kinases [6] = biological target: 266 human kinases (Homo sapiens, UniProt P08581, D1228H); details: Met(D1246H)(h); 100 μM
# Summary of the method: as §1
# 266 human kinases [7] = biological target: 266 human kinases (Homo sapiens, UniProt Q04759); details: PKCθ(h); 100 μM
# Summary of the method: as §1
# 266 human kinases [8] = biological target: T2, 266 human kinases (Homo sapiens, UniProt Q9UL54); details: TAO2(h); 100 μM
# T2 sequence (Q9UL54 1-1235): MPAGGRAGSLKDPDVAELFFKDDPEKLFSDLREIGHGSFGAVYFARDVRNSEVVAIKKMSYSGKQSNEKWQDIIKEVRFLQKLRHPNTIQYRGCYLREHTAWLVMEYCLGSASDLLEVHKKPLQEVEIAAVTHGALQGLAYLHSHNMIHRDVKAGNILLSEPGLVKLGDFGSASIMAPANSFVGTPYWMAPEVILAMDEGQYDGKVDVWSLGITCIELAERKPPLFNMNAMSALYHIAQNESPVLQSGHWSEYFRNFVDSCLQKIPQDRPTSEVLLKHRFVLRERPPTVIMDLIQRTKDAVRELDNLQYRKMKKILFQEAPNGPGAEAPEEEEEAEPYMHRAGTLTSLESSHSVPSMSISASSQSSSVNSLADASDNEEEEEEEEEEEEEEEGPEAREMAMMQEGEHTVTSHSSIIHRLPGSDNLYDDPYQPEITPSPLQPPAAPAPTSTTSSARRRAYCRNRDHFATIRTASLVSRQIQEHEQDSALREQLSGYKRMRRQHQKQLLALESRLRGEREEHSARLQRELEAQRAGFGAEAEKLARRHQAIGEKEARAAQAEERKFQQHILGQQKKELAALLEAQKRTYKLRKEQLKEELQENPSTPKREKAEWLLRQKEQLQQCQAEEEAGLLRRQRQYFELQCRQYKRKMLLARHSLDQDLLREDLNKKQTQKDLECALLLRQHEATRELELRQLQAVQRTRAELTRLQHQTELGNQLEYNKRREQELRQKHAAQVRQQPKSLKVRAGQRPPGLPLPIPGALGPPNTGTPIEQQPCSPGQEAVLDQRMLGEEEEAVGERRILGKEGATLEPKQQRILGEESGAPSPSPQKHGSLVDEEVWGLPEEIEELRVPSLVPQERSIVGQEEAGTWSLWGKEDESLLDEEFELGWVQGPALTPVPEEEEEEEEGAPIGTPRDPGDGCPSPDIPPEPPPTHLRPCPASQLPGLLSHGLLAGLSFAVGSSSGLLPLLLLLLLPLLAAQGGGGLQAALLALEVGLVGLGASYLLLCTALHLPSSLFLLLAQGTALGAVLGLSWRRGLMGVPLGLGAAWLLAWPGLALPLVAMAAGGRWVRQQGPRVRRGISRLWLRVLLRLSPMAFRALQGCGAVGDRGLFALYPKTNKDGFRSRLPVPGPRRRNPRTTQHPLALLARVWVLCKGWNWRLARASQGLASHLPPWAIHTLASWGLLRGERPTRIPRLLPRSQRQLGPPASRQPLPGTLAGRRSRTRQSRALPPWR
# Summary of the method: as §1
# Sequence of 266 human kinases (Homo sapiens, UniProt O60674) (O60674 whole entry): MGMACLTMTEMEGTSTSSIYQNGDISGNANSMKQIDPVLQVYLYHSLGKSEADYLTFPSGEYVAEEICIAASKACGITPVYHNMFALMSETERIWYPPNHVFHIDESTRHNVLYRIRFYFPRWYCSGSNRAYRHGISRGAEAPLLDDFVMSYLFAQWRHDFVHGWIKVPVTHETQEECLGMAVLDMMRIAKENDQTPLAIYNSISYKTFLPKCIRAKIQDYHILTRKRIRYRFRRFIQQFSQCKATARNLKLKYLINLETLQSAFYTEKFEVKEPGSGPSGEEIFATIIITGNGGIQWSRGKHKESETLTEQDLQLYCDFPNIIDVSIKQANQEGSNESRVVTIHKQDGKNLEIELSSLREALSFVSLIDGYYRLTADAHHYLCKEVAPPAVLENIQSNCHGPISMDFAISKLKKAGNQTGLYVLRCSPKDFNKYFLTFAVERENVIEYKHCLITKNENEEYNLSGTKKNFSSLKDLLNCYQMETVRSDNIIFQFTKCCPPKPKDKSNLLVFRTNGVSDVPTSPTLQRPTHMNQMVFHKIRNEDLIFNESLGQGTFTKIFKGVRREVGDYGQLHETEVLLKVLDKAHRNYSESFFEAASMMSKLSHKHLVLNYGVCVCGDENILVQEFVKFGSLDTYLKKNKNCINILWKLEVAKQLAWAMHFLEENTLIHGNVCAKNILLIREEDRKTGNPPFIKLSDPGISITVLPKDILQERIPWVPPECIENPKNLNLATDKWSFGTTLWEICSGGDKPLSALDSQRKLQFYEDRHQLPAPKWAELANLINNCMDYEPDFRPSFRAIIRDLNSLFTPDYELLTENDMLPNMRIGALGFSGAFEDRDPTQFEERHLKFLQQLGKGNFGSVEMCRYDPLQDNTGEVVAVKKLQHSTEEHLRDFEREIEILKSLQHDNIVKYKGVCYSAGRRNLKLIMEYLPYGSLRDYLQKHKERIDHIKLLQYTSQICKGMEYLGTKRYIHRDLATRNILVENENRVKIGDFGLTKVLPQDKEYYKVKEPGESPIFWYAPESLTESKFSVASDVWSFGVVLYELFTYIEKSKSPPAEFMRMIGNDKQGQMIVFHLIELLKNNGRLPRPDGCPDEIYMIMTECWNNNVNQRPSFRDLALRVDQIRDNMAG
# Sequence of 266 human kinases (Homo sapiens, UniProt Q04759) (Q04759 whole entry): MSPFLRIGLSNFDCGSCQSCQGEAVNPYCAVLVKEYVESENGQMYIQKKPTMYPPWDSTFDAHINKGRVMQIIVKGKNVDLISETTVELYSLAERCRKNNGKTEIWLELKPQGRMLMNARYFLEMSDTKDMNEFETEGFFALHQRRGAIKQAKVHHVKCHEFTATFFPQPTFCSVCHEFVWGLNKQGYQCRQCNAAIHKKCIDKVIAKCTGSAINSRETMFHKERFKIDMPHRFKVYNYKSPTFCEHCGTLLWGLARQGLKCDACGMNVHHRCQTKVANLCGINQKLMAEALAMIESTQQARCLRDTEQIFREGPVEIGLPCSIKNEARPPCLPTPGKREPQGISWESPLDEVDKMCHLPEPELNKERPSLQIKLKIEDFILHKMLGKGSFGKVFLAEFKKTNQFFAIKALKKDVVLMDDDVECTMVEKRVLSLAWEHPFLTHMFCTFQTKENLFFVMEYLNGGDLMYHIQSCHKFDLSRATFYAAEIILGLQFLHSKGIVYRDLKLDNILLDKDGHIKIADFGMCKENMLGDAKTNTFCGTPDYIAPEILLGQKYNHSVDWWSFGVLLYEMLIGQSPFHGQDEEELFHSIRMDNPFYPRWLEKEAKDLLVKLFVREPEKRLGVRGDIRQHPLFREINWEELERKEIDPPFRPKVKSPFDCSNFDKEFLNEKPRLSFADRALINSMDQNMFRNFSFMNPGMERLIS
# Sequence of 266 human kinases (Homo sapiens, UniProt Q15375) (Q15375 28-998): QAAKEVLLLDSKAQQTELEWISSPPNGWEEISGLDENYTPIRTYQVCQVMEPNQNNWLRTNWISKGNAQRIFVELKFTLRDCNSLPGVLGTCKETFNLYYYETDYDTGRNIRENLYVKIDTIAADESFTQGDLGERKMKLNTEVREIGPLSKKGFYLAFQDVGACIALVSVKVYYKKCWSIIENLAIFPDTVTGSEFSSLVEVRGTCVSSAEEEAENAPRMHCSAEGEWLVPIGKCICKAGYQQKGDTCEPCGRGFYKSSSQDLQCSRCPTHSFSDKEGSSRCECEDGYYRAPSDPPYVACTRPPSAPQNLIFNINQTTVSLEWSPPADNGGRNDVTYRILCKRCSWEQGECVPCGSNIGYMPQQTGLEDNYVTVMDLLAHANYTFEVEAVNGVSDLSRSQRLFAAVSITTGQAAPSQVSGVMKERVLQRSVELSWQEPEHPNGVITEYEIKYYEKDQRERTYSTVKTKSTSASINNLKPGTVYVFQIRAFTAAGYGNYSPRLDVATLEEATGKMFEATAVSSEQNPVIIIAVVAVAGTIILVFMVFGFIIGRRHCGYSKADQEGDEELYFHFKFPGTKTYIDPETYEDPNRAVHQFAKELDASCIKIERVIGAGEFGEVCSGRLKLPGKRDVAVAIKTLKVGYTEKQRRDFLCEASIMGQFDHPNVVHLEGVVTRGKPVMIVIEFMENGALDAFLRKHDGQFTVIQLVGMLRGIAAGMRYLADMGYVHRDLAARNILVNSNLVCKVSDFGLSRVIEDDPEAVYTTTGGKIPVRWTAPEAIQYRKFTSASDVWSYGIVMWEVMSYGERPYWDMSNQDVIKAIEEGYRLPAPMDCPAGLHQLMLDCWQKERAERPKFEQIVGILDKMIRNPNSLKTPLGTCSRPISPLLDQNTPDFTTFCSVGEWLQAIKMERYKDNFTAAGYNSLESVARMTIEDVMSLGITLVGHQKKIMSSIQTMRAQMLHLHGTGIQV
# Sequence of 266 human kinases (Homo sapiens, UniProt Q02763) (Q02763 23-1124): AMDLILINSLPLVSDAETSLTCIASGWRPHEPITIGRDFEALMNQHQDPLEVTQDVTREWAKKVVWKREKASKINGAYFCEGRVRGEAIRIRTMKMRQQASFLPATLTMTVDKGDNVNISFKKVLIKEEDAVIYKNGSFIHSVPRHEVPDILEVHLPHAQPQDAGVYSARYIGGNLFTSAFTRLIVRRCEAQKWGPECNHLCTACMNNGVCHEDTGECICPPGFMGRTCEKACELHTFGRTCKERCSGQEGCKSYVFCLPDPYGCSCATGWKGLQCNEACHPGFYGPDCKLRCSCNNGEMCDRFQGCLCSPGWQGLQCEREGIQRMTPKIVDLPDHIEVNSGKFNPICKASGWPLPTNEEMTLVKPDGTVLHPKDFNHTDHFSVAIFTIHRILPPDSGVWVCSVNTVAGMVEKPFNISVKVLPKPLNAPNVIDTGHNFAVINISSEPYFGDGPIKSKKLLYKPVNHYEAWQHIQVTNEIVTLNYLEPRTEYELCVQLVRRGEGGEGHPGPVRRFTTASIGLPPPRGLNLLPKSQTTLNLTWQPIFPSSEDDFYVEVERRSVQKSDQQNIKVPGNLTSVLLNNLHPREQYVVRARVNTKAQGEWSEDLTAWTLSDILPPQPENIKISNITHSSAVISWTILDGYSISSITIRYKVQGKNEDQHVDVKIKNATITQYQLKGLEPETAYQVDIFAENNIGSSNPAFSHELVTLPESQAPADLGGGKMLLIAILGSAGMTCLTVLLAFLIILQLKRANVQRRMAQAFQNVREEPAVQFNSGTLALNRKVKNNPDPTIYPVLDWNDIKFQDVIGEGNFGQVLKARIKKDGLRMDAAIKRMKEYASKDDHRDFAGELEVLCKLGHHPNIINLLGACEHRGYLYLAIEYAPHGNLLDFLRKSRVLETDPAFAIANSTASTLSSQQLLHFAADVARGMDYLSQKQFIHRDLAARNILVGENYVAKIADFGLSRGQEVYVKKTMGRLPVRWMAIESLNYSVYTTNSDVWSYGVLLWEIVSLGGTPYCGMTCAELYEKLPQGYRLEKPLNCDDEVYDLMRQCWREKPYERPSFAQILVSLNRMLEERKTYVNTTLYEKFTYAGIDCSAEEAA
# Sequence of 266 human kinases (Homo sapiens, UniProt Q7KZI7) (Q7KZI7 whole entry): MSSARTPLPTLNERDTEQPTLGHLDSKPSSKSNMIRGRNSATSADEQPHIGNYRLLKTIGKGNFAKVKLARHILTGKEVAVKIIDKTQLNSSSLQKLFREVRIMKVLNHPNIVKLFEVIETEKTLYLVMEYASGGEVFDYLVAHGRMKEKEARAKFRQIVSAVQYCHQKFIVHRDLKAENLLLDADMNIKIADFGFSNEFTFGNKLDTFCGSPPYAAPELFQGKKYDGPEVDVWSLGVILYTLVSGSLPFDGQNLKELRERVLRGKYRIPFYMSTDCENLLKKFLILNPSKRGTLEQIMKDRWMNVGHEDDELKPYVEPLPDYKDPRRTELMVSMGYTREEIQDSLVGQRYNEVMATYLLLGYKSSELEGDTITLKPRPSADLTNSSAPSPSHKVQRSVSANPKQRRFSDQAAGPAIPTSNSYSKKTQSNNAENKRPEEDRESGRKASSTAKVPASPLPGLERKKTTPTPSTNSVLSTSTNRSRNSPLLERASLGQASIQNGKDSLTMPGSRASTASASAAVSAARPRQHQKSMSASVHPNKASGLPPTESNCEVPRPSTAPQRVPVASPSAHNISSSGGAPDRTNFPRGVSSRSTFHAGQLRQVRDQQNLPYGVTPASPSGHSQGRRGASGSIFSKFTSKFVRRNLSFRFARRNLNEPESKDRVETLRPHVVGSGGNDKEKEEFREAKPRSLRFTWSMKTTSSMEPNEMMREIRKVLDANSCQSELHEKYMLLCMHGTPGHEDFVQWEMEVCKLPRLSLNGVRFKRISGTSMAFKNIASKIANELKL
sequence,measurement,setting,value
HRRIKAWLKKIKALARQLGVAA (mammal) [MMI-0500],% activity,266 human kinases [1],97%
same,% activity,266 human kinases [2],10%
same,% activity,266 human kinases [3],22%
same,% activity,266 human kinases [4],49%
same,% activity,266 human kinases [5],189%
same,% activity,266 human kinases [6],150%
same,% activity,266 human kinases [7],62%
same,% activity,266 human kinases [8],15%
YARAAARQARAKALNRQLGVA (mammal) [MMI-0200],% activity,266 human kinases [1],110%
same,% activity,266 human kinases [2],98%
same,% activity,266 human kinases [3],53%
same,% activity,266 human kinases [4],131%
same,% activity,266 human kinases [5],220%
same,% activity,266 human kinases [6],139%
same,% activity,266 human kinases [7],101%
same,% activity,266 human kinases [8],93%
